Laboratory results taken from the supplement of paper PMC7125110.
± gives the standard error. Variants at the floor of the assay were thinned out.

B1: glmS ribozyme (parent)
chain: AUAAAAGCGCCAGAACUACAGAAAUGUAGUUGACGAGGAGGAGGUUUAUCGAAUUUUCGGCGGAUGCCUCCAAA

What was measured:
[1] = variants of: B1; assay: self-cleavage kobs at 640 uM GlcN6P; higher = faster cleavage; RNA array; details: with glucosamine-6-phosphate
Outline: (§1)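 Weighted Michaelis–Menten fits across concentrations supplied kcat and KM, based on kobs from one- or two-exponential decay fits to normalised per-tile medians. The data came from barcoded ribozyme variants transcribed in situ by E. coli RNA polymerase on sequenced MiSeq chips and tracked at 37 °C by a hybridised Cy3 probe. Glucosamine-6-phosphate (40 μM to 10 mM) in HEPES/KCl/Mg(OAc)2 buffer was flowed in.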

[2] = variants of: B1; assay: self-cleavage kobs at 2500 uM GlcN6P; higher = faster cleavage; RNA array; details: with glucosamine-6-phosphate
Outline: as §1

Variant	self-cleavage kobs at 640 uM GlcN6P [1] [s⁻¹]	self-cleavage kobs at 2500 uM GlcN6P [2] [s⁻¹]
AUAAAAGCGCCAGGACUACAGAAAUGUAGUUGACGCGGAGGAGGUUUAUCGAAUUUUCGGCGGAUACCUCCAAA [A14G A36C G66A]	< 1e-05	
AUAAAAGCGCCAGAACUACAGAAAUGUAUUUGAUGAGGAGGAGGUUGAUCGAAUUUUCGGCGGAUGCUUCCAAA [G29U C34U U47G C68U]	5.56e-05 ± 2.3e-05	
AUAAAAUCGCCAGAACUACAGAAAUGUAGUUGACGAAGCGGAGGUUUAUCGAAUUUUCGGCGGAUGCCUCCAAA [G7U G37A A39C]	< 1e-05	< 1e-05
AUAAAAGCGCCAGAACUACAGAAAUGUAGUUGUCGAGGCGGAGGUUUUUCGAAUUUUCUGCGGAUGCCUCCAAA [A33U A39C A48U G59U]	< 1e-05	
AUAAAAGCGCUAGAACUACAGAAAUGUAGUUGACGAGGAGGAGGUUUAUCGAAUUUUAGGCUGAUGCCUCCAAA [C11U C58A G62U]	< 1e-05	
AUAAAAGCGCCAGAACUACAGAAAUGUAGUUGACUAGGAGGAGGUUUAUCGAAUUUCCGGCGGAUGCCUCCAAA [G35U U57C]	< 1e-05	< 1e-05
AUAAAAGCGUCAGAACUACAGAAAUGUAGUUGUCGUGGAGGAUGUUUAUCGAGUUUUCGGCGGAUGCCUCUAAA [C10U A33U A36U G43U A53G C71U]	< 1e-05	< 1e-05
AUAAAAGCGCGAGAACUACAGAAAUGUAGUGGACGAGGCGCAGGUUUAUCGAAUUUUCGGCGGAUGCCUCCAAA [C11G U31G A39C G41C]	< 1e-05	< 1e-05
AUAAAAGCGCCAGAACUACAGAAAUGUAGUUGAAGAGUAGGAGGUUUAUCGAGUUUUCGGCGGAUGCCUCCAAA [C34A G38U A53G]	< 1e-05	
AUAAAAGCGCCAGAACUACAGAAAUGUAGUUGAAUAGGAGGCGGUUUAUCGAAUUUUCGGCGGAUGCCUCCAAA [C34A G35U A42C]	< 1e-05	
AUAAACGCGCCAGAACUACAGAAAUGUAGUUGACGAGGAGGAGGUUUAUCGAAUUUUCCUCGGAUGCCUCCAAA [A6C G59C G60U]	< 1e-05	< 1e-05
AUAAAAGCUCCCGAACUACAGAAAUGUAGUUGGCGAGGAGGAGGUUUAUCGAAUUUUCGGCGGAUGCCUCCAAA [G9U A12C A33G]	< 1e-05	< 1e-05
AUAAAAACGCCAGAACUACAGAAAUGUAGUUGACGAGGUGGAGGUUUAUCGACUUUUCGGCGGCUGCCUCCAAA [G7A A39U A53C A64C]	< 1e-05	
AUAAAAGCGCCAUAGCUACAGAAAUGUAGUUGACGAGGAGGAGGUUUAUCGCAUUUUCGGCGGAUGCCUCCAAA [G13U A15G A52C]	< 1e-05	< 1e-05
AUAAAAGCGCCUGAACUACAGAAAUGUAGUUGACGAGGGGGAGGUUGAUCGAAAUUUCGGCGGAUGCCACCAAA [A12U A39G U47G U54A U69A]	9.73e-05 ± 2e-05	8.59e-05 ± 2.7e-05
AUAAAAGCUCCAGAACUACAGAAAUGUAGGCGACGAGGCGGAGGUUUAUCGAAUUUUCGGCGGGUGCCUCCAAA [G9U U30G U31C A39C A64G]	< 1e-05	< 1e-05
AUAAAAGCGCCAGAACUACAGAAAUGUACUUGACGAGGAGGAGGUUCAUCGAAUUUUCGGCGGAUGCCUUCAAA [G29C U47C C70U]	8.05e-05 ± 1.3e-05	0.000105 ± 2.4e-05
AUAAAAGCGACAGAACUACAGAAAUGUAGUUGACGAGGAGGAGAUUCAUCGAAUUUUCGGCGGAUGCCUCCAAA [C10A G44A U47C]	< 1e-05	
AUAAAAGCGCCAGAACUACAGAAAUGUAGUGGACGAGGAGGAGUUUUAUCGAAUUUUCGGCUGAUGCCUCCAAA [U31G G44U G62U]	< 1e-05	< 1e-05
AUAAAAGCGCCAGAACUACAGAAAUGUAGUUGACGAGGAGGAGGUUUAUCGAAUUUUCGGUGGAUGCGUCCAAA [C61U C68G]	4.29e-05 ± 1.5e-05	
AUAAAAGCGGCAGAACUACAGAAAUGUAGUUGACGAGGAGGAGGUUUUUCGUAUUUUCGGCGGAUGCCUCCAAA [C10G A48U A52U]	< 1e-05	
AUAAAAGCGCCAGACCUACAGAAAUGUAGUUGACGAGGAGGAGGUUGAUCGAAUUUUCGGCGGAUUCCUCCAAA [A15C U47G G66U]	< 1e-05	
AUAAAAGCGCACGAACUACAGAAAUGUAGUUGACGAGGAGGCGGUUUAUCGAAUUUUCGGCGGAUGCCUCCAAA [C11A A12C A42C]	< 1e-05	< 1e-05
AUAAAAGCGCCAGCACUACAGAAAUGUAGUUGACGAGGACCAGCUUUAUCGAAUUUUCGGCGGAUGCCUCCAAA [A14C G40C G41C G44C]	< 1e-05	< 1e-05
